Residue numbers refer to the chain shown, from its start. Values belong to the binder of their own block, whether it stands above or below them.
Legend:
[1] = biological target: Feline_OSMR_hlgG1_Fc (feline); assay: SPR Biacore
[2] = biological target: Canine_OSMR_hlgG1_Fc (canine); assay: SPR Biacore
Sequence of Canine_OSMR_hlgG1_Fc (canine) (chain, as listed by the source limits assumed, form in doubt): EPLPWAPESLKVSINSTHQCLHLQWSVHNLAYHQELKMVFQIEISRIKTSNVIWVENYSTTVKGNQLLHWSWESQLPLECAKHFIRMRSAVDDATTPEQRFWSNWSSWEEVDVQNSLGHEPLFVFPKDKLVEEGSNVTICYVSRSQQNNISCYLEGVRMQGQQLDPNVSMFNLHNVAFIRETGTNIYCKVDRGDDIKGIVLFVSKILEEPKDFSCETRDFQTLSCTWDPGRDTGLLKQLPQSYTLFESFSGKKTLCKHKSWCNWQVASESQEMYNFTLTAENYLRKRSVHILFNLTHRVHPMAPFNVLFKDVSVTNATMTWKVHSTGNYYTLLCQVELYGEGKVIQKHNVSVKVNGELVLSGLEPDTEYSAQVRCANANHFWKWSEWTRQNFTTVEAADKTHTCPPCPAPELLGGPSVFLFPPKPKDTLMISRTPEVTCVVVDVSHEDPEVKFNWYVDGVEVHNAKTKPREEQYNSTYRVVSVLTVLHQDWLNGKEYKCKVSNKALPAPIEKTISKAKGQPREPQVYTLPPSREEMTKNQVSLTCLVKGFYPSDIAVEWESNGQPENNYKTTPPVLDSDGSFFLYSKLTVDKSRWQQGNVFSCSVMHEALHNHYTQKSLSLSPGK

Sequence of Feline_OSMR_hlgG1_Fc (feline) (chain, as listed by the source limits assumed, form in doubt): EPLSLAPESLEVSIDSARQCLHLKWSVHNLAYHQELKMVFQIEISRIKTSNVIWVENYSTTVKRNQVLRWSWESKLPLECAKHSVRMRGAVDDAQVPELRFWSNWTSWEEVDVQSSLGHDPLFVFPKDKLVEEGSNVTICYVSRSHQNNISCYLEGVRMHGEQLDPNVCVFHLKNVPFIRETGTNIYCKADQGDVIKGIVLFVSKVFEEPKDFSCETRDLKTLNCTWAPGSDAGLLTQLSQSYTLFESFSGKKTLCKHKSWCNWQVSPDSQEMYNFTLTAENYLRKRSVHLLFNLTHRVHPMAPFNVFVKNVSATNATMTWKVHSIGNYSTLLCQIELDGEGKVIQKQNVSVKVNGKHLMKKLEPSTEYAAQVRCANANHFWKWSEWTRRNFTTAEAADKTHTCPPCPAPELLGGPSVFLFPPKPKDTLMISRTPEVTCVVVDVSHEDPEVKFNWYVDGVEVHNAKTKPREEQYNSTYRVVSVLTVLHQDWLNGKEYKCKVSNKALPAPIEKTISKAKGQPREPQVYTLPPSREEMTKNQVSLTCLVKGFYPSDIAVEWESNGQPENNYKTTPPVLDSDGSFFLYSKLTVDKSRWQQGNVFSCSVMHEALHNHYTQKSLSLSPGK

B1: Canine_OSM (ligand)
chain: SCSDKYPELLGQLQKQADFMQHTNTLLDLYIRSQGLDKNGLKEHCRERPGAFPSKDALQRLSRRVFLRTLDTTLGQVLLRLAALEQDIPKAQDLEMLSGVKLNIRGFKNNIHCMAQLLPGSSETTEPTPTSPGASPSPTPTLDTFQRRLEGCRFLHGYHRFMRSVGQVFREWGKSLSRSRR
Kd [1]: 41.1 nM
koff [1]: 0.00423 s⁻¹
kon [1]: 103000 M⁻¹ s⁻¹
Kd [2]: 43.6 nM
koff [2]: 0.003 s⁻¹
kon [2]: 68700 M⁻¹ s⁻¹

B2: FEL_10F07_2.2 (antibody)
heavy: DVQLVESGGDLVKPGGSLRLTCVASGFTFSSYAMSWVRQAPGKGLQWVAYISSGGDYFYYADTVKGRFTISRDDAKNTLYLQMSSLKTEDTATYYCTGDPITGTFAYWGQGTLVTVSSASTTAPSVFPLAPSCGTTSGATVALACLVLGYFPEPVTVSWNSGALTSGVHTFPAVLQASGLYSLSSMVTVPSSRWLSDTFTCNVAHPPSNTKVDKTVRKTDHPPGPKPCDCPKCPPPEAAGAPSIFIFPPKPKDTLSISRTPEVTCLVVDLGPDDSDVQITWFVDNTQVYTAKTSPREEQFNSTYRVVSVLPILHQDWLKGKEFKCKVNSKSLPSPIERTISKAKGQPHEPQVYVLPPAQEELSRNKVSVTCLIKSFHPPDIAVEWEITGQPEPENNYRTTPPQLDSDGTYFVYSKLSVDRSHWQRGNTYTCSVSHEALHSHHTQKSLTQSPGK
light: DITMTQSPGSLAGSPGQQVTMNCRASQDITNYLNWYQQKPGQHPKLLIYYTSTLHSGVPDRFSGSGSGTDFTLTISNLQAEDVASYYCQQGHMLPWTFGQGTRSDAQPSVFLFQPSLDELHTGSASIVCILNDFYPKEVNVKWKVDGVVQNKGIQESTTEQNSKDSTYSLSSTLTMSSTEYQSHEKFSCEVTHKSLASTLVKSFQRSECQRE
Kd [1]: 1.21 nM
koff [1]: 0.000457 s⁻¹
kon [1]: 376000 M⁻¹ s⁻¹
Kd [2]: 4.99 nM
koff [2]: 0.000903 s⁻¹
kon [2]: 181000 M⁻¹ s⁻¹

B3: FEL_09E09_1.1 (antibody)
heavy: B2 heavy with F29Y, F58I, D74N, S84N, T97V, G98R
light: EIQMTQSPSSLSASPGDRVTITCRASQDINNYLNWYQQKPGKVPKLLIYYTSTLHSGVPSRFSGSGSGTDFTLTISSLEPEDAATYYCQQGNTLPWTFGQGTRSDAQPSVFLFQPSLDELHTGSASIVCILNDFYPKEVNVKWKVDGVVQNKGIQESTTEQNSKDSTYSLSSTLTMSSTEYQSHEKFSCEVTHKSLASTLVKSFQRSECQRE
Kd [1]: 7.73 nM
koff [1]: 0.000979 s⁻¹
kon [1]: 127000 M⁻¹ s⁻¹
Kd [2]: 18.2 nM
koff [2]: 0.00105 s⁻¹
kon [2]: 57500 M⁻¹ s⁻¹

B4: CAN_09E09_1.2 (antibody)
heavy: EVQLVESGGDLVKPGGSLRLSCVASGFTFSSYAMSWVRQAPGKGLQWVAYISSGGDYIYYADTVKGRFTISRDNAKNTLYLQMNSLRAEDTAMYYCVRDPITGTFAYWGQGTLVTVSSASTTAPSVFPLAPSCGSTSGSTVALACLVSGYFPEPVTVSWNSGSLTSGVHTFPSVLQSSGLYSLSSMVTVPSSRWPSETFTCNVAHPASKTKVDKPVPKRENGRVPRPPDCPKCPAPEMLGGPSVFIFPPKPKDTLLIARTPEVTCVVVDLDPEDPEVQISWFVDGKQMQTAKTQPREEQFNGTYRVVSVLPIGHQDWLKGKQFTCKVNNKALPSPIERTISKARGQAHQPSVYVLPPSREELSKNTVSLTCLIKDFFPPDIDVEWQSNGQQEPESKYRTTPPQLDEDGSYFLYSKLSVDKSRWQRGDTFICAVMHEALHNHYTQESLSHSPGK
light: DIVLTQPTSVSGSLGQRVTISCRASQDINNYLNWYQQLPGKAPKLLVYYTSTLHSGVPDRFSGSNSGSSATLTITGLQAEDEADYYCQQGNTLPWTFGQGTRNDAQPAVYLFQPSPDQLHTGSASVVCLLNSFYPKDINVKWKVDGVIQDTGIQESVTEQDKDSTYSLSSTLTMSSTEYLSHELYSCEITHKSLPSTLIKSFQRSEC
Kd [1]: 11 nM
koff [1]: 0.00184 s⁻¹
kon [1]: 167000 M⁻¹ s⁻¹
Kd [2]: 37.7 nM
koff [2]: 0.00108 s⁻¹
kon [2]: 28600 M⁻¹ s⁻¹

B5: FEL_19F07_1.1 (antibody)
heavy: DVQLVESGGDLVKPGGSLRLTCVASGFTYSDYYMAWVRQAPGKGLQWVANINYDGSSTYYLDSLKSRFTISRDNAKNTLYLQMNSLKTEDTATYYCVRGLTWDFDVWGQGTLVTVSSASTTAPSVFPLAPSCGTTSGATVALACLVLGYFPEPVTVSWNSGALTSGVHTFPAVLQASGLYSLSSMVTVPSSRWLSDTFTCNVAHPPSNTKVDKTVRKTDHPPGPKPCDCPKCPPPEAAGAPSIFIFPPKPKDTLSISRTPEVTCLVVDLGPDDSDVQITWFVDNTQVYTAKTSPREEQFNSTYRVVSVLPILHQDWLKGKEFKCKVNSKSLPSPIERTISKAKGQPHEPQVYVLPPAQEELSRNKVSVTCLIKSFHPPDIAVEWEITGQPEPENNYRTTPPQLDSDGTYFVYSKLSVDRSHWQRGNTYTCSVSHEALHSHHTQKSLTQSPGK
light: EIQMTQSPSSLSASPGDRVTITCKASQDVDTAVAWYQQKPGKVPKLLIYLASTRHTGVPSRFSGSGSGTDFTLTISSLEPEDAATYYCQQYSRFPLTFGQGTRSDAQPSVFLFQPSLDELHTGSASIVCILNDFYPKEVNVKWKVDGVVQNKGIQESTTEQNSKDSTYSLSSTLTMSSTEYQSHEKFSCEVTHKSLASTLVKSFQRSECQRE
Kd [1]: 0.783 nM
koff [1]: 6.37e-05 s⁻¹
kon [1]: 81300 M⁻¹ s⁻¹
Kd [2]: 10.3 nM
koff [2]: 0.000294 s⁻¹
kon [2]: 28500 M⁻¹ s⁻¹

B10: CAN_19F07_2.2 (antibody)
heavy: EVQLVESGGDLVKPAGSLTLSCLASGFTFSDYYMAWVRQTPEKGLQWVANINYDGSSTYYLDSLKSRFTISRDNAKNTLYLQMNSLRDEDTAVYYCARGLTWDFDVWGQGTLVTVSSASTTAPSVFPLAPSCGSTSGSTVALACLVSGYFPEPVTVSWNSGSLTSGVHTFPSVLQSSGLYSLSSMVTVPSSRWPSETFTCNVAHPASKTKVDKPVPKRENGRVPRPPDCPKCPAPEMLGGPSVFIFPPKPKDTLLIARTPEVTCVVVDLDPEDPEVQISWFVDGKQMQTAKTQPREEQFNGTYRVVSVLPIGHQDWLKGKQFTCKVNNKALPSPIERTISKARGQAHQPSVYVLPPSREELSKNTVSLTCLIKDFFPPDIDVEWQSNGQQEPESKYRTTPPQLDEDGSYFLYSKLSVDKSRWQRGDTFICAVMHEALHNHYTQESLSHSPGK
light: DIVMTQTPLSLSVSPGETASISCKASQDVDTAVAWFRQKPGQSPQRLIYLASTRHTGVPDRFSGSGSGTDFTLRISRVEADDTGVYYCQQYSRFPLTFGQGTRNDAQPAVYLFQPSPDQLHTGSASVVCLLNSFYPKDINVKWKVDGVIQDTGIQESVTEQDKDSTYSLSSTLTMSSTEYLSHELYSCEITHKSLPSTLIKSFQRSEC
Kd [1]: 24 nM
koff [1]: 0.00113 s⁻¹
kon [1]: 47000 M⁻¹ s⁻¹

Stronger by Kd [1], values ahead:

Kd [1]: 0.00332 nM
koff [1]: 5.62e-07 s⁻¹
kon [1]: 169000 M⁻¹ s⁻¹
Kd [2]: 4.4 nM
koff [2]: 0.000215 s⁻¹
kon [2]: 48800 M⁻¹ s⁻¹
B6: FEL_19F07_2.2 (antibody)
heavy: B5 heavy with D10N, Y29F, V97A
light: DITMTQSPGSLAGSPGQQVTMNCKASQDVDTAVAWYQQKPGQHPKLLIYLASTRHTGVPDRFSGSGSGTDFTLTISNLQAEDVASYYCQQYSRFPLTFGQGTRSDAQPSVFLFQPSLDELHTGSASIVCILNDFYPKEVNVKWKVDGVVQNKGIQESTTEQNSKDSTYSLSSTLTMSSTEYQSHEKFSCEVTHKSLASTLVKSFQRSECQRE

Kd [1]: 0.108 nM
koff [1]: 4.07e-07 s⁻¹
kon [1]: 3790 M⁻¹ s⁻¹
B7: FEL_19F07_2.1 (antibody)
heavy: B5 heavy with D10N, Y29F, V97A
light: B5 light

Kd [1]: 0.435 nM
koff [1]: 1.95e-05 s⁻¹
kon [1]: 44700 M⁻¹ s⁻¹
Kd [2]: 31 nM
koff [2]: 0.000327 s⁻¹
kon [2]: 10500 M⁻¹ s⁻¹
B8: FEL_19F07_1.2 (antibody)
heavy: B5 heavy
light: B6 light

Kd [1]: 0.32 nM
koff [1]: 3.55e-05 s⁻¹
kon [1]: 111000 M⁻¹ s⁻¹
Kd [2]: 9.13 nM
koff [2]: 0.000334 s⁻¹
kon [2]: 36600 M⁻¹ s⁻¹
B9: CAN_19F07_1.1 (antibody)
heavy: B10 heavy with A15G, T19R, L23V, T40A, E42G, D88A, V93M, A97V
light: EIVMTQSPASLSLSQEEKVTITCKASQDVDTAVAWYQQKPGQAPKLLIYLASTRHTGVPSRFSGSGSGTDFSFTISSLEPEDVAVYYCQQYSRFPLTFGQGTRNDAQPAVYLFQPSPDQLHTGSASVVCLLNSFYPKDINVKWKVDGVIQDTGIQESVTEQDKDSTYSLSSTLTMSSTEYLSHELYSCEITHKSLPSTLIKSFQRSEC

Kd [1]: 0.198 nM
koff [1]: 1.12e-05 s⁻¹
kon [1]: 56700 M⁻¹ s⁻¹
Kd [2]: 8.3 nM
koff [2]: 0.00022 s⁻¹
kon [2]: 26400 M⁻¹ s⁻¹
B11: CAN_19F07_2.1 (antibody)
heavy: B10 heavy
light: B9 light

Reference: US20220177594A1
